Measurements reported in US8114832 (UMC UTRECHT HOLDING B V, dated 2012).
Ends that are not written are not given here.

Assays:
[1] = biological target: T1, recombinant human β2-glycoprotein I (human, UniProt P02749 20-345); assay: SPR (Biacore), chemically synthesized tPA F immobilized (395 RU)
T1 construct: Said to hold more cross-β structure conformation than plasma β2GPI; also called recombinant β2GPI; rec. β2GPI
T1 sequence (looked up): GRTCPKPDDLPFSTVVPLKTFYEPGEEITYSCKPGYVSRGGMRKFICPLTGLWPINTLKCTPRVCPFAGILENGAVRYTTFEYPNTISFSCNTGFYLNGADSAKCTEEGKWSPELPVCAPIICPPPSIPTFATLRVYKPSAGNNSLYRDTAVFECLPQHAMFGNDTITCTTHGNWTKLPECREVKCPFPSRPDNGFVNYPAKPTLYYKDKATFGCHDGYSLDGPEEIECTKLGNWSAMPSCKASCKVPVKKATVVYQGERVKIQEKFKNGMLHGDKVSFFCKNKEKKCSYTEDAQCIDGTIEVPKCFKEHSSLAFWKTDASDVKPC
Protocol: Then, the proteins were covalently coupled to the activated dextran surface. Remaining activated groups in each of the four flow channels were blocked by injection of 35 μl of 1 M ethanolamine hydrochloride pH 8.5. EDC, NHS and ethanolamine hydrochloride were obtained from Biacore. […] The running buffer during immobilization was 10 mM HEPES pH 7.4, 140 mM NaCl. Buffers were filtrated on a 0.22 μm filter (white GSWP, 47 mm, Millipore) and degassed at room temperature.

[2] = biological target: T1, recombinant human β2-glycoprotein I; assay: SPR (Biacore), chemically synthesized HGFA F immobilized (190 RU)
Protocol: The running buffer during immobilization was 10 mM HEPES pH 7.4, 140 mM NaCl. Buffers were filtrated on a 0.22 μm filter (white GSWP, 47 mm, Millipore) and degassed at room temperature.
Regeneration buffer was running buffer supplemented with 1 M NaCl.

B1: chemically synthesized tPA F domain (other)
chain: SYQVICRDEKTQMIYQQHQSWLRPVLRSNRVEYCWCNSGRAQCHSVPVKSK
modifications: cysteine pairing not given here; also: C-terminal lysine acetylated or biotinylated
notes: domain: F domain; Made from two peptides by native chemical ligation
B1: no binding (tested: 0-300 mM (so in the source)) [1].

B2: chemically synthesized HGFA F domain (other, UniProt Q04756 200-240, looked up)
chain: EKCFDETRYEYLEGGDRWARVRQGHVEQCECFGGRTWCEGT
modifications: cysteine pairing not given here; also: acetylated lysine, position not given here
notes: as for B1
B2: no binding (tested: 0-300 mM (so in the source)) [2].
